Source: article doi:10.1101/2024.03.20.586028

Molecular target: Methanocaldococcus jannaschii SufB* (N-terminal His6 tagged) (Methanocaldococcus jannaschii)
Assay: pull-down

Work on “Methanocaldococcus jannaschii SufC (untagged) (natural protein)” yielded a stoichiometry N of 1.
